Reference: article PMC10810279, “Biophysical and structural characterization of a multifunctional viral genome packaging motor” (Nucleic Acids Research, 2023)
“And” between values parts separate entries of the source, which are not always exact repeats. Equal values may be shown once.

B1: bacteriophage λ terminase small subunit (TerS) (natural protein, UniProt P03707 1-181, looked up)
chain: MEVNKKQLADIFGASIRTIQNWQEQGMPVLRGGGKGNEVLYDSAAVIKWYAERDAEIENEKLRREVEELRQASEADLQPGTIEYERHRLTRAQADAQELKNARDSAEVVETAFCTFVLSRIAGEIASILDGLPLSVQRRFPELENRHVDFLKRDIIKAMNKAAALDELIPGLLSEYIEQSG
notes: small DNA recognition terminase subunit TerS of bacteriophage lambda; Never tested as an isolated subunit, only as part of the protomer or ring; also called small terminase
B2: bacteriophage λ terminase large subunit (TerL) (enzyme, UniProt P03708 1-641, looked up)
chain: MNISNSQVNRLRHFVRAGLRSLFRPEPQTAVEWADANYYLPKESAYQEGRWETLPFQRAIMNAMGSDYIREVNVVKSARVGYSKMLLGVYAYFIEHKQRNTLIWLPTDGDAENFMKTHVEPTIRDIPSLLALAPWYGKKHRDNTLTMKRFTNGRGFWCLGGKAAKNYREKSVDVAGYDELAAFDDDIEQEGSPTFLGDKRIEGSVWPKSIRGSTPKVRGTCQIERAASESPHFMRFHVACPHCGEEQYLKFGDKETPFGLKWTPDDPSSVFYLCEHNACVIRQQELDFTDARYICEKTGIWTRDGILWFSSSGEEIEPPDSVTFHIWTAYSPFTTWVQIVKDWMKTKGDTGKRKTFVNTTLGETWEAKIGERPDAEVMAERKEHYSAPVPDRVAYLTAGIDSQLDRYEMRVWGWGPGEESWLIDRQIIMGRHDDEQTLLRVDEAINKTYTRRNGAEMSISRICWDTGGIDPTIVYERSKKHGLFRVIPIKGASVYGKPVASMPRKRNKNGVYLTEIGTDTAKEQIYNRFTLTPEGDEPLPGAVHFPNNPDIFDLTEAQQLTAEEQVEKWVDGRKKILWDSKKRRNEALDCFVYALAALRISISRWQLDLSALLASLQEEDGAATNKKTLADYARALSGEDE
notes: large catalytic terminase subunit TerL of bacteriophage lambda; Never tested as an isolated subunit, only as part of the protomer or ring; also called large terminase

Columns and labels:
[1] = target: T1, lambda terminase holoenzyme ring (TerL•TerS2)5 (Escherichia phage Lambda, UniProt P03708); experiment: ATPase assay, […] TLC, phosphorimaging; type: biochemical; settings: labelled compound; 10 nM terminase; 50 mM Tris-HCl pH 9, 10 mM MgCl2, 60 mM NaCl, 2 mM spermidine, 37 °C
T1 construct: gene A; assembled ring of five TerL•TerS2 protomers; with Terminase small subunit
T1 sequence (P03708 1-641): B2 chain
T1 sequence (P03707 1-181 partner): B1 chain

[2] = target: T1, lambda terminase holoenzyme ring (TerL•TerS2)5; experiment: cryoEM 2D class averages (conformational change); type: binding; settings: 1 mM ATPγS; no DNA mentioned; no 3D reconstruction
[3] = target: bacteriophage λ terminase protomer (TerL•TerS2) (bacteriophage λ) (UniProt P03708); experiment: native MS; charge detection mass spectrometry (CDMS) of the assembled ring, 300 mM ammonium acetate pH 8.34
[4] = target: bacteriophage λ terminase protomer (TerL•TerS2) (bacteriophage λ) (UniProt P03708); experiment: SAXS; assembled terminase ring at 0.25, 0.50 and 0.80 mg/ml, 5°C; mass from the Porod-invariant volume; protomers to ring
[5] = target: bacteriophage λ terminase protomer (TerL•TerS2) (bacteriophage λ) (UniProt P03708); experiment: cryo-EM 2D class averages; purified terminase ring at 0.5 mg/ml with 1 mM ATPγS; no 3D reconstruction
[6] = target: bacteriophage λ terminase protomer (TerL•TerS2) (bacteriophage λ) (UniProt P03708); experiment: cryo-EM 2D class averages; purified terminase ring at 0.5 mg/ml, no ligand (apo); no 3D reconstruction
[7] = target: B2; experiment: native MS; charge detection mass spectrometry (CDMS) of the terminase protomer, 200 mM ammonium acetate; settings: both partners purified
[8] = target: the molecule itself; experiment: cryo-EM 2D class averages; purified terminase ring at 0.5 mg/ml with 1 mM ATPγS; no 3D reconstruction

## Nc1ncnc2c1ncn2[C@@H]1O[C@H](COP(=O)(O)OP(=O)(O)OP(=O)(O)O)[C@@H](O)[C@H]1O [ATP]
[1]
  Km: 0.495 ± 0.07 µM

## Nc1ncnc2c1ncn2[C@@H]1O[C@H](COP(=O)(O)OP(=O)(O)OP(O)(O)=S)[C@@H](O)[C@H]1O [ATPγS]
[2]
  cryoEM 2D class averages (conformational change): we imaged the λ terminase ring bound to ATP-γS, a poorly hydrolyzed ATP analog

## bacteriophage λ terminase protomer (TerL•TerS2) (from UniProt P03708 1-641; P03707 1-181) (complex)
[3]
  stoichiometry N: 5 protomers
[4]
  stoichiometry N: 5.1 and 4.2 and 4.4
[5]
  stoichiometry N: 5
[6]
  stoichiometry N: 5

## B1
[7]
  binding result: binds

## B2
[8]
  binding result: binds
